Source: the DeepSol protein solubility set

Assay: soluble on expression in E. coli; label from the status in PepcDB or PDB records

Sequence	soluble on expression in E. coli
MAGDPNSMNLKQSIEEIINQPEYEPMSVSDFQDALGLSSADSFRDLIKVLVELEQSGLIERTKTDRYQKKHSSKGHSKLIKGTLSQNKKGFAFLRPEDEDMEDIFIPPTKINRALDGDTVIVEIHQSKGEHKGKIEGEVKSIEKHSVTQVVGTYSEARHFGFVIPDDKRIMQDIFIPKGQSLGAVDGHKVLVQITKYADGSDNPEGHISAILGHKNDPGVDILSIIYQHGIEIEFPDEVLQEAEAVPDHIENTEIKGRHDLRDELTITIDGADAKDLDDAISVKKLANGNTQLTVSIADVSYYVTEGSALDKEAYDRATSVYLVDRVIPMIPHRLSNGICSLNPNVDRLTLSCRMEIDASGRVVKHEIFDSVIHSDYRMTYDAVNQIITEKDPNIREQYKEITPMLDLAQDLSNRLIQMRKRRGEIDFDINEAKVLVNEDGIPTDVQLRQRGEGERLIESFMLIANETVAEHFSKLDVPFIYRVHEQPKSDRLRQFFDFITNFGIMIKGTGEDIHPTTLQKVQEEVEGRPEQMVISTMMLRSMQQAHYDDVNLGHFGLSAEYYTHFTSPIRRYPDLTVHRLIRKYLIEKSMDNKEVKRWEDKLPELAEHTSKRERRAIEAERDTDELKKAEYMIQHIGDEFEGIVSSVANFGMFIELPNTIEGMVHIANMTDDYYRFEERQMALIGERQAKVFRIGDTVKVKVTHVDVDERLIDFQIVGMPLPKNDRSQRPARGKTIQAKTRGKSLDKSKSDDKGRKKKGSQRKGKNERKNDKSGNSKHKPFYKDKSVKKKARRKKKLEHHHHHH	soluble
MAGHSMREHEVYSKLRAPPSSRMILRLDGRGFHRLTESLDFDRPYDEAFRDLMIRTCLDLMEEFSPSLIYTFSDEINVLLDSVPFAGRVEKLDSVFSGFASSSFTRGALEAGFSPVKPVSFDCRVIPISSDIVPEYFRSRQDESWRNCLNSYAYWTLRREVGARRAAERLRGLKSDSLHDLLFERGVNISRVPAWQRRGVGVYRVPHRVRGYNPIRDEEVSAVRMRVKVDLELPLFTDEFFEGLMRLEHHHHHH	not soluble
MAGNAPLQQVQKKWAECQYSTPDGDEKEQCFHRAIAKTSIYLDREPGNPELTVWLAINKASLAGAQGGFGALSLAKEAKSLLEGVIATSPQTLDGSAYTSLGSLYYKVPGWPIGFGDDDKAEEMLKKALEINPKGIDPNYFYGDFLAEEGRDKEAKVYLTRAMQASPRPDRPLADKGRKLEIEATLGRLKLEHHHHHH	soluble
MAGQEHHYAVQVKWTGNRGKGTSGYRDYERDYTISTAGKADITGSSDPAFRGDPSRWNPEDLLVASLSACHKLWYLHFCSVNGIIVEDYVDNAEGTLVMEKDGAGQFSEVVLKPVITISKGDPARADELHHDAHDKCFIARSVNFPIRVQGTVKVV	not soluble
MAGQLPRRIIKETQRLLADPVPGISANPDESNARYFHVMIAGPDDSPFAGGVFKLELFLPEEYPMAAPKVRFMTKIYHPNIDKLGRICLDILKDKWSPALQIRTVLLSIQALLSAPNPEDPLATDVAEQWKTNEAEAIKTAKQWTMNYAQA	not soluble
MAGTSFLSDLLSGVTERGRALLFSGSKARDRVVDTDIETLCEMLLSSRGEASGMAIAAEILDRWSRFNAAEAVQFLHMLSDRFGAEAAALDKAIDAYRTDKSPMAVIALHNAAEPRRQELLRRLNLAPNGTQKLVRMRERLLETKEDRADLGAVDTDFAHLFSSWFNRGFLTLQPIDWTTPAHILEKIIKYEAVHEIAGWEELRRRLAPADRRCFAFFHPRLRDDPLVFVEVALTRSIPSAIADVLDESRDHIGADTATTAVFYSISNCQDGLRGISFGNFLIKQVVEDLRRDLPGLKEFVTLSPVPGFARWISKIRDPKSGFPLSPEDRNTLVLLDDPTWPEDKARADAVERILLPLAARYFITERTPDNRPVDPVARFHLGNGARLERLNFLGDRSVKAMRQAHGLMVNYLYKLEDIETNHEALAQRGEVAASPAVKALQGKIEPILPEKPKLEHHHHHH	soluble
MAHHHHHHHRSPTRVNDGVDADEVTFVNRFTVHGAPAEFESVFARTAAFFARQPGFVRHTLLRERDKDNSYVNIAVWTDHDAFRRALAQPGFLPHATALRALSTSEHGLFTARQTLPEGGDTTGSGHR	soluble
MAHHHHHHMAAACGCRSLLSRDMPRRFPMCVASGTMCRRLCDCRMEGEERRELRERRCQESRWASCRRAHCPPSPAPPCRAPSITPQHRSRRHQHTARQRMPPPSRVRPEGTRPLLRSEESHRVAQRRAQNLLADSAHDTGQWTLSVCVVEDTAVESLLSSGWTVG	not soluble
MAHHHHHHMAAMLRLTFALRLSSKQLSHGPLATHTRKQSFRQSKTALQVSRLRSQTQRANFNLQQELNRDFGARQYAFAQGRRSMQRAAEDLMYDRAYRAERHRGRAGEVYRTTKDRAAEVATARQLLQMQESTRRLMKKGRTQRVEAFRAQKQWNR	not soluble
MAHHHHHHMAKNDIWTPLESNPDSLYLYSCKLGQSKLKFVDIYGFNNDLLDMIPQPVQAVIFLYPVNDNIVSENNTNDKHNLKENFDNVWFIKQVKIITLCNMNNILPILYVCFNSIELKNNKSIENLHHEFCGQVENRDDILDVDTHFIVFVQIEGKIIELDGRKDHPTVHCFTNGDNFLYDTGKIIQDKFIEKCKDDLRFSALAVIPNDNFDII	soluble
MAHHHHHHMALLQRVAQVMQEVAPLSLADHSWDNVGVLLESPAPNKSNAIMLTIDLTPEVMEECLEKNVEVILAYHPPLFRPVKRLTLQDPKQRIILQAASAGMSIYAPHTSLDAAEGGINDWLASLVAGDGAYTASPIQPTSSYAPNAAEATKATGMGRLVKLKEEVEFCSMVGSLKQQLGLATVRVALPDSWEPSHKVSSVALCAGSGTSVFRLLRLPVHVLLSGEMSHHDVLAATAAGQAVILCEHTNTERGFLKAVLQRTLQAKLEGTTVLVSDKDSDPLTAW	soluble
MAHHHHHHMALPRGMHLLLKIYLQKCRLRWLREALNCIRGMVSMRLVMASMGSTPVERHKGEVAPGAEGEDTHFWLDGSFAEAEEALRQFFEMIKFPLPQRFSFAEEIRRDMKKRYPHCGEEALKSEEDITVVDAAALFKCVDGYIAFLSTRSDVGIGNAE	not soluble
MAHHHHHHMARSLQDPRLSFYCEQYDHIAHRMNHYVLQFYFEDRTVEIREVTKNRLHLKRAHFPHLNRDDFKVGSSLSLLGGVIKLTAYADEVTRELCGERGEVTAVMFGEQLLPQLGRCLAVLTEECGFVALEMQMAWLPVETAAAYGVPPDLVEGRIVVVKCANTNALQRGIDFMARMPGARAAESVEEVGRWEQIVEKAKEQPVAILGDPNSTVVIIKPHALQKLAGGVIVQQLIDAGLEISGISLTNMTSQQANELLKPYKGVLPDFPDTMRSLMGTVWVLQFVSLDEGVDVVSVAREVCGPFDPVIAKELRPTSIRARFGVDRAHNAVHCCDLHEEGPLYSNFFFRPEDVDE	not soluble
MAHHHHHHMASEEPLNEIPGECPTPGDLGHAGWDVLHTAGAVYPYKPSPLQQEAFRSFLYSWSHVYACSHCSYHMRRYLKRNPPVVTDKLALNRYLCEFHNTVNKNIAKPVYNCDPMVVLRRWHPTFPDMEDQPTIEEQIAEQRRLEQAEAQKQKEKELQQKQVQTSSLGDMKASRERLVGRWRSEKSESHEYANNNPSSVGAFATGWSASSRQHENAGDAAAKSAPAPLAESREKRWWIFGKNGSGDKNAGFSSTTGTPSKVNSSGGGSNSGGMNGSLDDDEASVMAILKRLKACMVYCPDKDEKSNSA	not soluble
MAHHHHHHMASVPFTEEDLHELYTWVDEIPISRQKRNIARDFADGCSVAEILKFFFPKLVDLHNYVPAMSHAKKLDNWNTLNAKVLRKLYFEVPPEEVEDIVAAVPGAIERFLRALRVKVAQIKARRDEMLRMGEIQAHVNAHHVDPSPSQPQPREGGHVRDGGASAATAHRGSGRPSSPAAPAGPVASSRGSSSAGPQAPPRQTQPQRQPTPPLVNEAASLTQALREKDYTIQELRETVAILSEKIVKLEELVRVKDEKLNQYRQKVGRVPA	soluble
MAHHHHHHMASYQYFSYIDLYKVNNVNLDPFTEVFNDKFYLRYIYKWPHMNIITKEIDDHTSGYILGKEEGFGQDYHGHVTALSIEEDSRRTGKGVDLMTEFEKITQIIHKGNFVDLFVRVSNNPAINMYKKLGYVINEEINNYYCGNESALDMRKYLDITNS	soluble
